The supplement of paper PMC10567573

B1: ALDH8A1 (parent)
chain: WSSRSPQERSRVLNQVADLLEQSL

Variants of: B1
Assay: protein stability index of a GFP-peptide fusion (GPS, HEK-293T) (PSI 1-6); higher = more stable
Conditions: c terminus: a fixed tail appended
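Further: lentivirally expressed fusions sorted by FACS into six bins by GFP to DsRed ratio, PSI derived from sequencing read proportions per bin multiplied by bin number.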

Variant | protein stability index
P6R | 2.31
P6S | 2.8
P6T | 3.1
P6V | 2.39
P6W | 2.9
P6Y | 1.98
Q7A | 2.38
Q7C | 2.24
Q7D | 2.96
Q7E | 2.76
Q7F | 1.77
Q7G | 2.7
Q7H | 2.31
Q7I | 2.42
Q7K | 2.61
Q7L | 1.91
Q7M | 2.23
Q7N | 2.81
Q7P | 2.9
Q7R | 2.62
Q7S | 2.21
Q7T | 2.15
Q7V | 2.53
Q7W | 2.37

Variant | protein stability index
Q7Y | 1.79
E8A | 2.31
E8C | 1.6
E8D | 2.87
E8F | 2.01
E8G | 2.17
E8H | 2.71
E8I | 2.68
E8K | 2.04
E8L | 2.1
E8M | 2.19
E8N | 2.23
E8P | 2.51
E8Q | 2.57
E8R | 2.88
E8S | 2.16
E8T | 2.46
E8V | 2.23
E8W | 2.36
E8Y | 2.71
R9A | 2.59
R9C | 1.39
R9D | 3.25
R9E | 3.38

Variant | protein stability index
R9F | 2.56
R9G | 2.96
R9H | 2.77
R9I | 2.44
R9K | 2.83
R9L | 2.48
R9M | 2.16
R9N | 2.86
R9P | 3.37
R9Q | 2.24
R9S | 2.87
R9T | 2.23
R9V | 2.37
R9W | 2.22
R9Y | 2.21
S10A | 2.41
S10C | 2.36
S10D | 3.14
S10E | 3.11
S10F | 1.24
S10G | 3.8
S10H | 2.58
S10K | 1.99
S10L | 2.25

Variant | protein stability index
S10M | 2.45
S10N | 2.29
S10P | 2.49
S10Q | 2.32
S10R | 2.95
S10T | 1.81
S10V | 2.05
S10W | 2.82
S10Y | 2.37
R11A | 3.4
R11C | 2.18
R11D | 3.37
R11E | 3.27
R11F | 2.43
R11G | 2.91
R11H | 1.89
R11I | 2.21
R11K | 1.99
R11L | 2.15
R11M | 1.55
R11N | 2.48
R11P | 2.58
R11Q | 2.38
R11S | 2.74

Variant | protein stability index
R11T | 2.48
R11V | 2.68
R11W | 1.86
R11Y | 2.22
V12A | 3.11
V12C | 2.35
V12D | 3.85
V12E | 3.88
V12F | 2.12
V12G | 3.48
V12H | 3.05
V12I | 1.98
V12K | 3.07
V12L | 2.06
V12M | 2.31
V12N | 3.99
V12P | 4.23
V12Q | 3.45
V12R | 2.71
V12S | 3.78
V12T | 3.47
V12W | 1.73
V12Y | 2.74
L13A | 2.59

Variant | protein stability index
L13C | 3.11
L13D | 3.81
L13E | 3.49
L13F | 2.4
L13G | 3.46
L13H | 2.73
L13I | 3.06
L13K | 3.53
L13M | 2.63
L13N | 3.54
L13P | 4.09
L13Q | 3.85
L13R | 3.03
L13S | 3.49
L13T | 3.5
L13V | 3.13
L13W | 2.55
L13Y | 2.6
N14A | 2.56
N14C | 2.21
N14D | 2.28
N14E | 3.24
N14F | 1.26
N14G | 2.38

Variant | protein stability index
N14H | 2.17
N14I | 2.02
N14K | 1.97
N14L | 1.62
N14M | 1.79
N14P | 3.21
N14Q | 2.41
N14R | 3.47
N14S | 2.58
N14T | 2.82
N14V | 2.1
N14W | 1.95
N14Y | 4.15
Q15A | 1.51
Q15C | 1.81
Q15D | 3.31
Q15E | 3.03
Q15F | 1.54
Q15G | 2.66
Q15H | 2.13
Q15I | 2.07
Q15K | 2.13
Q15L | 2.36
Q15M | 1.67

Variant | protein stability index
Q15N | 3.22
Q15P | 3.13
Q15R | 2.85
Q15S | 2.74
Q15T | 2.59
Q15V | 1.75
Q15W | 1.79
Q15Y | 1.81
V16A | 3.86
V16C | 2.98
V16D | 4.34
V16E | 4.6
V16F | 1.92
V16G | 4.12
V16H | 3.55
V16I | 2
V16K | 3.71
V16L | 2.24
V16M | 2.7
V16N | 4.2
V16P | 3.62
V16Q | 4.62
V16R | 3.9
V16S | 3.99

Variant | protein stability index
V16T | 4.18
V16W | 2.26
V16Y | 2.29
A17C | 2.34
A17D | 3.87
A17E | 3.88
A17F | 2.58
A17G | 3.47
A17H | 2.54
A17I | 2.42
A17K | 3.17
A17L | 1.48
A17M | 1.85
A17N | 3.3
A17P | 3.53
A17Q | 2.5
A17R | 1.9
A17S | 3.02
A17T | 3.1
A17V | 2.69
A17W | 2.33
A17Y | 2.15
D18A | 1.98
D18C | 2.03

Variant | protein stability index
D18F | 1.48
D18G | 2.76
D18H | 2.2
D18I | 1.76
D18K | 1.47
D18L | 1.86
D18M | 2.17
D18N | 2.22
D18P | 3.02
D18Q | 1.59
D18R | 2.34
D18S | 2.23
D18T | 2.02
D18V | 1.92
D18W | 1.37
D18Y | 1.81
L19A | 3.18
L19C | 3.14
L19D | 3.72
L19E | 4.4
L19F | 2.23
L19G | 4.16
L19H | 3.97
L19I | 2.31

Variant | protein stability index
L19K | 3.79
L19M | 2.52
L19N | 4.23
L19P | 4.63
L19Q | 4.19
L19R | 3.98
L19S | 4.14
L19T | 3.74
L19V | 3.07
L19W | 2.24
L19Y | 3.15
L20A | 3.59
L20C | 3.45
L20D | 4.64
L20E | 4.43
L20F | 2.75
L20G | 3.64
L20H | 3.86
L20I | 2.28
L20K | 4.64
L20M | 3.44
L20N | 4.14
L20P | 4.33
L20Q | 3.68

Variant | protein stability index
L20R | 3.5
L20S | 3.96
L20T | 4.08
L20V | 3.03
L20W | 2.82
L20Y | 3.37
E21A | 2.13
E21C | 2.47
E21D | 2.58
E21F | 2.47
E21G | 2.24
E21I | 2.09
E21K | 1.61
E21L | 2.11
E21M | 2
E21N | 2.52
E21P | 3.24
E21Q | 2.38
E21R | 2.26
E21S | 2.27
E21T | 2.33
E21V | 2.17
E21W | 1.58
E21Y | 1.71

Variant | protein stability index
Q22A | 2.22
Q22C | 1.68
Q22D | 3.63
Q22E | 2.88
Q22F | 1.93
Q22G | 2.98
Q22H | 3.34
Q22I | 2.01
Q22K | 2.27
Q22L | 1.65
Q22M | 1.83
Q22N | 2.61
Q22P | 3.31
Q22R | 2.72
Q22S | 3.1
Q22T | 2.53
Q22V | 1.91
Q22W | 1.95
Q22Y | 2.33
S23A | 2.31
S23C | 1.96
S23D | 4.17
S23E | 3.39
S23F | 2.24

Variant | protein stability index
S23G | 2.54
S23H | 2.77
S23I | 2.51
S23K | 3.53
S23L | 2.11
S23M | 2.3
S23N | 3.45
S23P | 3.15
S23Q | 3.39
S23R | 3.64
S23T | 1.94
S23V | 2.09
S23W | 1.94
S23Y | 1.72
L24A | 2.88
L24C | 2.9
L24D | 4.17
L24E | 3.59
L24F | 2.03
L24G | 3.16
L24H | 3.96
L24I | 1.76
